Measured values published in patent publication US8329865B2, “Antimicrobially active peptides” (priority 2001, dated 2012).

Columns and labels:
[1] = test system: human erythrocytes; experiment: Hemolytic assay; assay type: cell-based; conditions: 100 μg/ml
Experimental: Hemolytic assay. The hemolytic activity of DCD peptides was determined on fresh human erythrocytes, which were separated from human EDTA blood using a Ficoll gradient. Isolated erythrocytes were washed three times in 5 ml of PBS (50 mM sodium phosphate buffer, 150 mM NaCl [pH 7.0]) and centrifuged at 1,000×g for 6 min at room temperature. The pellets were resuspended in PBS and further diluted to a concentration of 10^9 human erythrocytes/ml. Hemolytic activity was determined as follows. To the human erythrocyte solution (50 μl), PBS (1 ml) was added, followed by different concentrations of the peptides. The suspension was incubated for 30 min at 37° C. and then centrifuged at 1,000×g for 6 min at 4° C. The supernatant was monitored at 415 nm by using a spectrophotometer (Bio-Rad, Munich, Germany). The hemolytic activity of each peptide was expressed as the percentage of the total hemoglobin release compared to the release after incubation with Millipore water.

[2] = CF release assay with unilamellar liposomes; conditions: even after the addition of 10 μM peptide; relative to Triton X-100
Experimental: FIG. 9. Effect of DCD-derived peptides on membrane permeability. (A) Outer membrane permeability measured by peptide-mediated NPN uptake in E. coli ML-35p. E. coli cells were incubated with 10 μM NPN in the presence of various concentrations of DCD peptides in 5 mM sodium HEPES buffer (pH 7.4). Enhanced uptake due to membrane permeability was measured by an increase in fluorescence intensity (Ex350 and Em460) caused by partition of NPN into the hydrophobic interior of the outer membrane. At time point 0 min, intact E. coli ML-35p cells were added to the peptides. The results are expressed as NPN uptake factor of fluorescence in arbitrary units. All analyses were performed in triplicates. (B) Inner membrane permeability measured as the influx of ONPG in E. coli ML-35p after the addition of DCD peptides. […] The release of ONP by cytoplasmic β-galactosidase was spectrophotometrically monitored at 420 nm. […] All samples were analyzed in triplicates. […] Release was determined 4 min after peptide addition at concentrations of 1 to 10 μM. […] Reaction progress was expressed as the percentage of CF released relative to the total fluorescence released after the addition of Triton X-100 solution at the end of each experiment.
Preparation of liposomes and CF release assay. […] The liposome concentration was determined by phosphorous analysis (Rouser, G. et al. 1970 Lipids 5:494-496). […]

[3] = test system: Escherichia coli, Staphylococcus aureus, Enterococcus faecalis and Candida albicans; experiment: CFU test (colony-forming units), Example 4; assay type: cell-based; conditions: sodium phosphate buffer, 37° C., 3 h, 4 h or overnight
Experimental: The antimicrobial effect of said peptides was carried out by a CFU test (test for colony-forming units) as described for the defensins by Valore et al., “Human Beta-Defensin-1: An Antimicrobial Peptide of Urogenital Tissues”, J Clin Invest 101, 1633-1642 (1998).
The test of the novel peptides was carried out with Escherichia coli, Staphylococcus aureus, Enterococcus faecalis and Candida albicans. E. coli was incubated in LB medium, E. faecalis and S. aureus in Columbia medium (Difko, BD Heidelberg) and C. albicans in casein hydrolysate medium (Merck, Darmstadt). The amounts of bacteria and yeasts were determined by photometry. The bacterial strains were incubated to an optical density of […] at 600 nm and the yeast was incubated to an optical density of 0.4-0.6 at 450 nm. The amount of the organisms was determined by plating various dilutions as follows: an OD of 1 at 600 nm is equivalent to 8.2×10^9/ml for E. coli, 1.9×10^10/ml for S. aureus and 9.0×10^9/ml for E. faecalis, and an OD of 1 at […] is equivalent to 1.4×10^8/ml for C. albicans.
The cells were washed twice with 10 mM sodium phosphate buffer (pH 7.4) and diluted to 2-3×10^7 cells/ml (E. coli, E. faecalis), 5.7×10^7 cells/ml (S. aureus) or 5×10^5 cells/ml (C. albicans) in phosphate buffer.
The cells were incubated with various amounts of the peptides in 200 μl of sodium phosphate buffer at 37° C. for 3 h, 4 h or overnight (21-24 h). The cells were diluted 1:10 to 1:100 for the bacteria and 1:500 to 1:5000 for the yeast, and 50 μl, 100 μl and 200 μl were plated on appropriate agar plates. The plates were incubated at 37° C. overnight, and the number of colonies was counted. The antimicrobial effect of the peptides has been stated as percentage of killed cells: [1−(cell survival after incubation with the peptide)/(cell survival after control incubation)]×100.

[4] = CD spectroscopy, secondary structure; assay type: physicochemical
Experimental: CD) spectroscopy. Circular dichroism (CD) measurements were performed with a Jasco J-720 CD spectrapolarimeter (Jasco, Tokyo, Japan) to determine the secondary structure of DCD-derived peptides. The data are reported as the average of three to four scans at 50 nm/min with a 1-nm step resolution. The CD spectra of the peptides (50 μM) in 10 mM sodium phosphate buffer (pH 7.0) with different amounts of NaCl (10, 100, and 150 mM) in 0 to 60% (vol/vol) trifluoroethanol (TFE) and in the presence of artificial phospholipid vesicles such as DOPC and DOPC-DOPG (1:1 molar ratio) were recorded at room temperature in the 180- to 260-nm wavelength range. The data are reported as the mean residue ellipticity in units of degrees cm^2 dmol^−1 and plotted versus wavelength. The secondary structural predictions for peptides were carried out by Jasco secondary structure software.

[5] = DOPC-DOPG (1:1 molar ratio) liposomes

Compound	hemolytic activity [1]	CF leakage from liposomes made of DOPC and DOPC-DOPG [2] [%]	antimicrobial effect (percentage of killed cells) [3]	Secondary structure, Random coil ([4]; 10 mM NaP) [%]	Secondary structure, Turn ([4]; 10 mM NaP) [%]	Secondary structure, α-Helix ([4]; 10 mM NaP) [%]	Secondary structure, β-Sheet ([4]; 10 mM NaP) [%]	Secondary structure, Random coil ([4]; 60% TFE) [%]	Secondary structure, Turn ([4]; 60% TFE) [%]	Secondary structure, α-Helix ([4]; 60% TFE) [%]	Secondary structure, β-Sheet ([4]; 60% TFE) [%]	Secondary structure, Random coil [4, 5] [%]	Secondary structure, Turn [4, 5] [%]	Secondary structure, α-Helix [4, 5] [%]	Secondary structure, β-Sheet [4, 5] [%]	Secondary structure, Random coil ([4]; dH2O) [%]	Secondary structure, Turn ([4]; dH2O) [%]	Secondary structure, α-Helix ([4]; dH2O) [%]	Secondary structure, β-Sheet ([4]; dH2O) [%]
CC[C@H](C)[C@H](NC(=O)[C@H](CCCCN)NC(=O)[C@H](CCC(=O)O)NC(=O)[C@H](CCCCN)NC(=O)[C@H](CO)NC(=O)[C@H](CCCCN)NC(=O)[C@H](CCCNC(=N)N)NC(=O)[C@H](Cc1ccccc1)NC(=O)[C@H](Cc1ccccc1)NC(=O)[C@H](CC(=O)O)NC(=O)CNC(=O)[C@H](CC(C)C)NC(=O)[C@@H](N)CC(C)C)C(=O)NCC(=O)N[C@@H](CCCCN)C(=O)N[C@@H](CCC(=O)O)C(=O)N[C@@H](Cc1ccccc1)C(=O)N[C@@H](CCCCN)C(=O)N[C@@H](CCCNC(=N)N)C(=O)N[C@H](C(=O)N[C@H](C(=O)N[C@@H](CCC(N)=O)C(=O)N[C@@H](CCCNC(=N)N)C(=O)N[C@H](C(=O)N[C@@H](CCCCN)C(=O)N[C@@H](CC(=O)O)C(=O)N[C@@H](Cc1ccccc1)C(=O)N[C@@H](CC(C)C)C(=O)N[C@@H](CCCNC(=N)N)C(=O)N[C@@H](CC(N)=O)C(=O)N[C@@H](CC(C)C)C(=O)N[C@H](C(=O)N1CCC[C@H]1C(=O)N[C@@H](CCCNC(=N)N)C(=O)N[C@H](C(=O)N[C@@H](CCC(=O)O)C(=O)N[C@@H](CO)C(=O)O)[C@@H](C)O)C(C)C)[C@@H](C)CC)C(C)C)[C@@H](C)CC [LL-37]	up to 2.5%	–	–	–	–	–	–	–	–	–	–	–	–	–	–	–	–	–	–
DPYAEAASGPNPGSKSHESAQAENCGADPE [DPI, negative control peptide, unrelated scrambled peptide]	–	≤ 2	no appreciable antimicrobial effect	54.8	19.4	0.0	25.8	42.5	6.0	9.6	42.0	51.2	19.1	0.0	29.7	50.3	15.4	0.0	34.3
